# Experimental data published in IntAct's records for PubMed 10364224.
# B1: Tyrosine-protein phosphatase non-receptor type 3 (Homo sapiens), P26045 (parent)
# chain: MTSRLRALGGRINNIRTSELPKEKTRSEVICSIHFLDGVVQTFKVTKQDTGQVLLDMVHNHLGVTEKEYFGLQHDDDSVDSPRWLEASKAIRKQLKGGFPCTLHFRVRFFIPDPNTLQQEQTRHLYFLQLKMDICEGRLTCPLNSAVVLASYAVQSHFGDYNSSIHHPGYLSDSHFIPDQNEDFLTKVESLHEQHSGLKQSEAESCYINIARTLDFYGVELHSGRDLHNLDLMIGIASAGVAVYRKYICTSFYPWVNILKISFKRKKFFIHQRQKQAESREHIVAFNMLNYRSCKNLWKSCVEHHTFFQAKKLLPQEKNVLSQYWTMGSRNTKKSVNNQYCKKVIGGMVWNPAMRRSLSVEHLETKSLPSRSPPITPNWRSPRLRHEIRKPRHSSADNLANEMTYITETEDVFYTYKGSLAPQDSDSEVSQNRSPHQESLSENNPAQSYLTQKSSSSVSPSSNAPGSCSPDGVDQQLLDDFHRVTKGGSTEDASQYYCDKNDNGDSYLVLIRITPDEDGKFGFNLKGGVDQKMPLVVSRINPESPADTCIPKLNEGDQIVLINGRDISEHTHDQVVMFIKASRESHSRELALVIRRRAVRSFADFKSEDELNQLFPEAIFPMCPEGGDTLEGSMAQLKKGLESGTVLIQFEQLYRKKPGLAITFAKLPQNLDKNRYKDVLPYDTTRVLLQGNEDYINASYVNMEIPAANLVNKYIATQGPLPHTCAQFWQVVWDQKLSLIVMLTTLTERGRTKCHQYWPDPPDVMNHGGFHIQCQSEDCTIAYVSREMLVTNTQTGEEHTVTHLQYVAWPDHGVPDDSSDFLEFVNYVRSLRVDSEPVLVHCSAGIGRTGVLVTMETAMCLTERNLPIYPLDIVRKMRDQRAMMVQTSSQYKFVCEAILRVYEEGLVQMLDPS
# Variants of: B1
# Conditions: with tera_human VCP
row,effect of a mutation on the interaction,Variant
1,increasing interaction,D811A

# Variants of: B1
# Conditions: with tera_human VCP
# Remark: another data set of the same source
row,effect of a mutation on the interaction,Variant
1,increasing interaction,Y676F;D811A

# Variants of: B1
# Conditions: with tera_mouse Vcp
row,effect of a mutation on the interaction,Variant
1,increasing interaction,Y676F;D811A
